{
  "source": "patent US20030165488A1",
  "molecules": {"B1": {"name": "hCaspase-12 (recombinant human caspase-12 containing the Ser-205 to Gly mutation), 6-His fusion protein expressed in E. coli (protein)", "chain": "MADEKPSNGVLVHMVKLLIKTFLDGIFDDLMENNVLNTDEIHLIGKCLKFVVSNAENLVDDITETAQIAGKIFREHLWNSKKQLSSALLEIQGAQPSGKLKLCPHAHFHELKTKRADEIYPVMEKERRTCLALNIRNKEFNYLHNRNGSELDLLGMRDLLENLGYSVVIKENLTAQEMETALRQFAAHPEHQSSDSTFLVFMSHGILNGICGTKHWDQEPDVLHDDTIFEIFNNRNCQSLKDKPKVIIMQACRGNGAGIVWFTTDSGKASADTHGRLLQGNICNDAVTKAHVEKDFIAFKSSTPHNVSWRHETNGSVFISQIIYYFREYSWSHHLEEIFQKVQHSFETPNILTQLPTIERLSMTRYFYLFPGN"}, "B2": {"name": "ΔCARD caspase-12 (RIK-5), 6-His fusion protein expressed in E. coli (protein)", "chain": "SALLEIQGAQPSGKLKLCPHAHFHELKTKRADEIYPVMEKERRTCLALNIRNKEFNYLHNRNGSELDLLGMRDLLENLGYSVVIKENLTAQEMETALRQFAAHPEHQSSDSTFLVFMSHGILNGICGTKHWDQEPDVLHDDTIFEIFNNRNCQSLKDKPKVIIMQACRGNGAGIVWFTTDSGKASADTHGRLLQGNICNDAVTKAHVEKDFIAFKSSTPHNVSWRHETNGSVFISQIIYYFREYSWSHHLEEIFQKVQHSFETPNILTQLPTIERLSMTRYFYLFPGN"}},
  "key": {"[1]": {"system": "T1, ΔCARD caspase-12 (RIK-5), 6-His fusion protein expressed in E. coli", "T1 sequence": "B2 chain"}, "[2]": {"system": "T2, hCaspase-12 (recombinant human caspase-12 containing the Ser-205 to Gly mutation), 6-His fusion protein expressed in E. coli", "T2 sequence": "B1 chain"}, "[3]": {"molecular_target": "DEVD-R110 substrate (Homogeneous Caspase Assay, Roche Biochemicals)", "test": "cell-based or functional assay"}, "[4]": {"molecular_target": "T3, procaspase-3 immunoprecipitated from SH-EP cell lysates, P42574", "T3 chain": "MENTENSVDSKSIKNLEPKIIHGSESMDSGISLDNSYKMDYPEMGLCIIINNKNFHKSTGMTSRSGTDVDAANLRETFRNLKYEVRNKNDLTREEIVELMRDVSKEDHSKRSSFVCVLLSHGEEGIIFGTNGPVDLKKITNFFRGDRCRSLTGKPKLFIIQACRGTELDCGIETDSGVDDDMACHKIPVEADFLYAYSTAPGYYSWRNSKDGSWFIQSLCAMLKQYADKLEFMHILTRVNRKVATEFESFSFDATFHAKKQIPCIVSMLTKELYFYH"}, "[5]": {"molecular_target": "T4, DEVD-R110 substrate (Homogeneous Caspase Assay, Roche Biochemicals)", "T4 chain": "DEVD"}},
  "note": "Where two headings read alike, the source gives them in different places.",
  "data": [
    {"molecule": "calpain II (Calbiochem)", "values": [
      {"measurement": "cleavage of human caspase-12, Western blot", "setting": "[1]", "result": "calpain II cleaves both hCaspase-12 and the ?CARD variant and that this cleavage is calcium dependent"},
      {"measurement": "cleavage of human caspase-12, Western blot", "setting": "[2]", "result": "calpain II cleaves both hCaspase-12 and the ?CARD variant and that this cleavage is calcium dependent"}
    ]},
    {"molecule": "control (non-caspase protein) preparation", "values": [
      {"measurement": "Measured fluorescence intensity (RFU), free rhodamine-110 released from DEVD-R110", "setting": "[3]", "result": 31, "unit": "RFU"}
    ]},
    {"molecule": "B1", "values": [
      {"measurement": "procaspase-3 processing, Western blot with antibody to full-length caspase-3", "setting": "[4]", "result": "when procaspase-3 was incubated with recombinant human caspase-12 or the ?CARD variant, lower molecular weight bands indicative of cleaved mature subunits were observed"},
      {"measurement": "Measured fluorescence intensity (RFU), free rhodamine-110 released from DEVD-R110", "setting": "[5]", "result": 807, "unit": "for hCaspase-12"}
    ]},
    {"molecule": "B2", "values": [
      {"measurement": "Measured fluorescence intensity (RFU), free rhodamine-110 released from DEVD-R110", "setting": "[5]", "result": 445, "unit": "for ?CARD"}
    ]}
  ]
}
